# Earlier results as cited in article PMC2855346.
# Target: CCR2 (Homo sapiens) (UniProt P41597)
# Sequence of UniProt P41597 (P41597 whole entry): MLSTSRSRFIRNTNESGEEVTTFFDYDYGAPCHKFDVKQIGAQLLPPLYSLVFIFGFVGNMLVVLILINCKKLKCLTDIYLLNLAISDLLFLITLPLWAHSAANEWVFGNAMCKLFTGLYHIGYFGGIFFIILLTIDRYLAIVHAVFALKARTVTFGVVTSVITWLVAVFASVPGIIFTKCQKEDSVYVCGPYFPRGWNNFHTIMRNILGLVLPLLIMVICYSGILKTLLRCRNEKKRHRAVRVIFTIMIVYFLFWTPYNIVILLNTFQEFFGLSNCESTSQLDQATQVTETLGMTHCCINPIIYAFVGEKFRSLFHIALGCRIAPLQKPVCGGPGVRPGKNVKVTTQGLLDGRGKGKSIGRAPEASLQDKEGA
substance,measurement,value
CCL2 (from UniProt P13500),Kd,2.5 nM
